In experiment [1] the target is Endophilin B1 (human) (UniProt Q9Y371). Put plainly: cryo-EM structure; endophilin B1 incubated with MSP2N2 nanodiscs at molar ratio 1:2 (MSP2N2:endophilin B1); cryo-EM data split into 2 classes.
Experiment [2] has the same target. Put plainly: SAXS; in solution, 8 and 16 μM endophilin B1 (0.34 and 0.69 mg/ml); 150 mM NaCl, 20 mM HEPES, 1 mM TCEP, 0.5 mM DTT, pH 8.1, 4 °C; monomer to dimer.
The target is the same in experiment [3]. Put plainly: cryo-EM structure; endophilin B1 incubated with His6-MSP2N2 nanodiscs (90% DOPS, 10% 14:0 cardiolipin), molar ratio 1:10 (MSP2N2:endophilin B1), SEC peak vitrified; single-particle reconstruction of membrane-bound endophilin B1 on bicelles, cryoSPARC and cryoDRGN.

Take “Endophilin B1 (from UniProt Q9Y371 1-365) (natural protein)”: the stoichiometry N in the experiment with Endophilin B1 (human) [1] and with Endophilin B1 (human) [2] was 2 throughout. Besides, in the experiment with Endophilin B1 (human) [3], the dimers bound per bicelle worked out at 6 dimers.

These data come from article PMC11799418.
